# Reference: patent US20050119205A1, “Methods of modulating heme oxygenase-1 expression and treating heme oxygenase-1 mediated conditions” (published 2005)
# T1: hBVR K143A (Homo sapiens, UniProt P53004 SEQ:1-296, K143A)
# T1 sequence: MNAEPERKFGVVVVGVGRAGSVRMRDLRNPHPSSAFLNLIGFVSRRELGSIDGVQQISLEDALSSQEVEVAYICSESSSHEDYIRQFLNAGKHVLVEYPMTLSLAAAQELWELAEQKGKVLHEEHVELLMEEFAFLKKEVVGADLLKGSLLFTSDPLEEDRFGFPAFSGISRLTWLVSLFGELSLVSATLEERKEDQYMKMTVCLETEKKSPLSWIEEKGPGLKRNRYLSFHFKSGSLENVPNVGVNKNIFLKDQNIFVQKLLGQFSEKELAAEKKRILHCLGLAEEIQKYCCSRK
# T2: hBVR L150A (Homo sapiens, UniProt P53004 SEQ:1-296, L150A)
# T2 sequence: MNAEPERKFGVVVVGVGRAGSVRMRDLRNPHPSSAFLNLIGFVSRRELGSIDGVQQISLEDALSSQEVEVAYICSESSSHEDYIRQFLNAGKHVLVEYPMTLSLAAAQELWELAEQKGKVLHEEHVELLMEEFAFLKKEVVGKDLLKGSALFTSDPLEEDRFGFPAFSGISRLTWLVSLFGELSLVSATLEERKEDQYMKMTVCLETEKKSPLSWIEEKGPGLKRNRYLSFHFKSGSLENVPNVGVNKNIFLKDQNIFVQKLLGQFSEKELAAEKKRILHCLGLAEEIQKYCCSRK
# T3: hBVR L157A (Homo sapiens, UniProt P53004 SEQ:1-296, L157A)
# T3 sequence: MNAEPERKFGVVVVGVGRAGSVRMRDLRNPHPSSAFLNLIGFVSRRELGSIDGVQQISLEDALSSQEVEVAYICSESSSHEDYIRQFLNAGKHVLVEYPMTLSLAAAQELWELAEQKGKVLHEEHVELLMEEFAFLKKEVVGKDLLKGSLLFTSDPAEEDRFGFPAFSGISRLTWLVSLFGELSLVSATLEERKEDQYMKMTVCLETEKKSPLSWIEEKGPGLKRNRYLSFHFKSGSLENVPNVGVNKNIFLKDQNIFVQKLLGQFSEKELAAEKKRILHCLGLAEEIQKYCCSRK
# T4: biliverdin reductase (hBVR) (Homo sapiens, UniProt P53004 SEQ:1-296)
# T4 chain: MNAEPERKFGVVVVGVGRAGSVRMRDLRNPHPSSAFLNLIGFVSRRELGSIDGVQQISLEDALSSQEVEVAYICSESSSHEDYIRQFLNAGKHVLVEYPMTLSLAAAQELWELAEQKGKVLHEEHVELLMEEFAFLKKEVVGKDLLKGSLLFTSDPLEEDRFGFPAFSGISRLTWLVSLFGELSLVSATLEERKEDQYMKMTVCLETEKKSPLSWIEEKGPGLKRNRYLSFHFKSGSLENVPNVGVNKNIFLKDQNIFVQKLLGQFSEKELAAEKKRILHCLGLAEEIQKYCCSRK
# T5: heme oxygenase-1 (hHO-1), E. coli expressed (Homo sapiens, UniProt P09601 P09601:1-288)
# T5 sequence: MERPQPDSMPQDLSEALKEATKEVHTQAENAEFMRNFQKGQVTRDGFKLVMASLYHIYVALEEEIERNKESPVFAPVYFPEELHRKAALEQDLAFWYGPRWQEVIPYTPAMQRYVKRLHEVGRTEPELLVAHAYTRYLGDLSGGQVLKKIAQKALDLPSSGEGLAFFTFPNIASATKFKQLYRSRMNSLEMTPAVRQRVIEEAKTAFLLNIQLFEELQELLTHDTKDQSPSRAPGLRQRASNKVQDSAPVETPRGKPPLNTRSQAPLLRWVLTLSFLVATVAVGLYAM
# T6: heme oxygenase-1 (HO-1), in vitro translated (UniProt P09601 P09601:1-288)
# T6 sequence: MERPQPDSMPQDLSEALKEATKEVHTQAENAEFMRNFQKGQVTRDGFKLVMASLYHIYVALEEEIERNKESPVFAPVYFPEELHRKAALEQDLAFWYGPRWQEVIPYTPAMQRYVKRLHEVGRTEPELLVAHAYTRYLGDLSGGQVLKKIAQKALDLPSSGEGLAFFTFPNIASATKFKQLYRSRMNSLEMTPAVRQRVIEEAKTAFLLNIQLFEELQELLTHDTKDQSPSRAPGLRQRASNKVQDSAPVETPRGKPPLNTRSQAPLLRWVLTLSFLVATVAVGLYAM
# Tests used:
# hBVR K143A = target: T1, hBVR K143A; assay: EMSA; signal same as native hBVR with zero AP-1 DNA; settings: tags: rabbit reticulocyte lysate; chain copies: 2; label: 32P 5'
# Description: (§1) As with native gel analysis, in vitro translated proteins were assayed for DNA binding immediately after synthesis. 1 μl of translated material was added to 5000-500,000 cpm of [³²P]-labeled DNA fragment representing approximately 2-3 ng of DNA. 0.1 μg of poly (dI•dC) in 10 μl of DNA binding buffer was added to the labeled DNA. After incubating samples for 20 min at room temperature, 5 μl loading buffer was added. The samples were resolved on 12% native polyacrylamide gel with 35 m Amp at 4° C. The gels were processed as described above. Dried gels were put on two pieces of film separated by a piece of paper. Autoradiography was done at −70° C. for different time periods.
# (§2) For this set of experiments, the [³⁵S] methionine-labeled mutant BVR proteins were generated by in vitro translation and assayed on a 12% native gel for detection of the ˜69 kDa protein band and analysis of DNA for complex formation. The 100-mer DNA fragment with two AP-1 sites or without an AP-1 site were used. On the native gel the high molecular weight band was not detected with the mutated proteins.
# hBVR L150A = target: T2, hBVR L150A; assay: as above; settings: tags: rabbit reticulocyte lysate; chain copies: 2; label: 32P 5'
# Description: as §1, §2
# hBVR L157A = target: T3, hBVR L157A; assay: as above; settings: tags: rabbit reticulocyte lysate; chain copies: 2; label: 32P 5'
# Description: as §1, §2
# [1] = target: T4, biliverdin reductase (hBVR); assay: EMSA; 10 mM Tris pH 7.4, 50 mM NaCl, 1 mM MgCl2, 1 mM EDTA, poly(dI-dC), room temperature; settings: tags: rabbit reticulocyte lysate, 35S-Met labelled; chain copies: 2 (stated homodimer); label: 32P 5'
# Description: as §1
# (§3) To determine whether the synthesized HBVR binds to DNA, the in vitro translated hBVR was incubated with [³²P]-labeled 56-mer or 100-mer DNA fragments. An identical 56 bp fragment in which the AP-I site was substituted with an unrelated sequence of equal length was used as control DNA. In addition, two identical 100 bp fragments with one AP-1 or zero AP-1 sites were synthesized and used as controls (OL.619, OL.620; OL.623-OL.630, Table 1). […] Also, binding of E. coli expressed hBVR protein, which is in monomeric form, to the 100-mer DNA fragment with two AP-1 sites was not detected.
# [2] = target: T5, heme oxygenase-1 (hHO-1), E. coli …; assay: EMSA; specificity control; settings: label: 32P 5'
# [3] = target: T6, heme oxygenase-1 (HO-1), in vitro …; assay: EMSA; specificity control; settings: tags: rabbit reticulocyte lysate; label: 32P 5'
# [4] = target: T4, biliverdin reductase (hBVR); assay: EMSA; settings: tags: rabbit reticulocyte lysate, 35S-Met labelled; chain copies: 2 (stated homodimer); label: 32P 5'
# Description: as §1, §3
# [5] = target: the molecule itself; assay: native PAGE (approx. 69 kDa band) against SDS-PAGE (~35 and ~40 kDa bands) of in vitro translated protein
# Description: The transcribed mRNA was translated in the presence of [35S] methionine using rabbit reticulocyte lysate. In vitro translation was performed using micrococcal nuclease treated rabbit reticulocyte lysate (Promega). 50 μl reaction mixture was prepared by using 35 μl lysate, 1 μl of 0.1 M DTT, 2 μl of 1 mM amino acid mixture minus methionine, 1 μl of RNase inhibitor and 5 μl translation grade [³⁵S] methionine. 5 μl transcribed mRNA was added to the above reaction mixture and immediately incubated at 30° C. for 90 minutes. The in vitro translated proteins were resolved on 12% SDS or native polyacrylamide gel along with rainbow or native high molecular weight markers, respectively (Amersham Pharmacia). The gels were fixed in 10% acetic acid and 30% methanol then treated with autoradiography enhancer (Amplify, Amersham Pharmacia) for 30 min and dried under vacuum at 80° C. for 2 h, and autoradiographed at −70° C.
# In vitro translated protein was assayed on native gel immediately after synthesis. […] A portion of the translated protein was treated with SDS and analyzed on denaturing 12% polyacrylamide gel.
# Next, whether the protein synthesized by reticulocyte lysate is in fact hBVR was tested. […] As shown in the autoradiogram, two prominent bands at ˜35 and ˜40 kDa were detected. hBVR, based on its predicted amino acid composition, has a molecular weight of ˜34 kDa (Maines et al., Eur. J. Biochem.
# [6] = target: the molecule itself; assay: native 12% polyacrylamide gel, homodimer (~69 kDa band) formation
# Description: In vitro translated protein was assayed on native gel immediately after synthesis. One μl of in vitro translated material was added to 2 μl (25 ng) of annealed, unlabelled control DNA fragment. To this 0.4 μg of poly dI•dC (Amersham Pharmacia) in 14 μl DNA binding buffer (10 mM Tris-chloride [pH 7.4], 50 mM NaCl, 1 mM MgCl₂, 1 mM EDTA, 1 mM DTT, 5% glycerol) was added. It was incubated for 5 min at room temperature and after adding 5 μl loading buffer (1.5×DNA binding buffer with bromophenol blue dye) samples were resolved on 12% native polyacrylamide gel in TAE buffer at 35 milliamps. The control DNA helps to prevent the formation of nonspecific protein aggregates, thereby increasing the resolution of protein bands (Halazonetis et al., Cell 55:917-924 (1988), which is hereby incorporated by reference in its entirety). A portion of the translated protein was treated with SDS and analyzed on denaturing 12% polyacrylamide gel.
# as §2
binder,measurement,setting,value
"100-mer HO-1 promoter, two AP-1 sites (OL.623/OL.624) (dsDNA) DNA 1: TCCTCAGCTGCTTTTATGCTGTGTCATGGTTGGGAGGGGTGATTAGCAGACAAAGGGAAGACAGATTTTGCTGAGTCACCCTCTGTTCCCTCTGCCTCAG DNA 2: CTGAGGCAGAGGGAACAGAGGGTGACTCAGCAAAATCTGTCTTCCCTTTGTCTGCTAATCACCCCTCCCAACCATGACACAGCATAAAAGCAGCTGAGGA",binding result,hBVR K143A,no binding
same,binding result,hBVR L150A,no binding
same,binding result,hBVR L157A,no binding
same,binding result,[1],binds
same,binding result,[2],no binding
same,binding result,[3],no binding
"56-mer, one AP-1 site (OL.627/OL.628) (dsDNA) DNA 1: CACTGAGAGAAACTATTACACAAGCCACATTAGCATGACTCATTGTTTCTGATCAG DNA 2: CTGATCAGAAACAATGAGTCATGCTAATGTGGCTTGTGTAATAGTTTCTCTCAGTG",binding result,[4],no binding
same,binding result,[3],no binding
"in vitro translated human biliverdin reductase (hBVR) (enzyme, the entries concern its self-association into a homodimer; also called translated hBVR; native in vitro translated hBVR) MNAEPERKFGVVVVGVGRAGSVRMRDLRNPHPSSAFLNLIGFVSRRELGSIDGVQQISLEDALSSQEVEVAYICSESSSHEDYIRQFLNAGKHVLVEYPMTLSLAAAQELWELAEQKGKVLHEEHVELLMEEFAFLKKEVVGKDLLKGSLLFTSDPLEEDRFGFPAFSGISRLTWLVSLFGELSLVSATLEERKEDQYMKMTVCLETEKKSPLSWIEEKGPGLKRNRYLSFHFKSGSLENVPNVGVNKNIFLKDQNIFVQKLLGQFSEKELAAEKKRILHCLGLAEEIQKYCCSRK",binding result,[5],binds
"in vitro translated hBVR mutant L150A (enzyme, Site-directed mutant made in p507 and translated in vitro with [35S] methionine; also called L4 mutant) MNAEPERKFGVVVVGVGRAGSVRMRDLRNPHPSSAFLNLIGFVSRRELGSIDGVQQISLEDALSSQEVEVAYICSESSSHEDYIRQFLNAGKHVLVEYPMTLSLAAAQELWELAEQKGKVLHEEHVELLMEEFAFLKKEVVGKDLLKGSALFTSDPLEEDRFGFPAFSGISRLTWLVSLFGELSLVSATLEERKEDQYMKMTVCLETEKKSPLSWIEEKGPGLKRNRYLSFHFKSGSLENVPNVGVNKNIFLKDQNIFVQKLLGQFSEKELAAEKKRILHCLGLAEEIQKYCCSRK",binding result,[6],no binding
"in vitro translated hBVR mutant K143A (enzyme, Site-directed mutant made in p507 and translated in vitro with [35S] methionine; also called K3 mutant) MNAEPERKFGVVVVGVGRAGSVRMRDLRNPHPSSAFLNLIGFVSRRELGSIDGVQQISLEDALSSQEVEVAYICSESSSHEDYIRQFLNAGKHVLVEYPMTLSLAAAQELWELAEQKGKVLHEEHVELLMEEFAFLKKEVVGADLLKGSLLFTSDPLEEDRFGFPAFSGISRLTWLVSLFGELSLVSATLEERKEDQYMKMTVCLETEKKSPLSWIEEKGPGLKRNRYLSFHFKSGSLENVPNVGVNKNIFLKDQNIFVQKLLGQFSEKELAAEKKRILHCLGLAEEIQKYCCSRK",binding result,[6],no binding
"in vitro translated hBVR mutant L157A (enzyme, Site-directed mutant made in p507 and translated in vitro with [35S] methionine; also called L5 mutant) MNAEPERKFGVVVVGVGRAGSVRMRDLRNPHPSSAFLNLIGFVSRRELGSIDGVQQISLEDALSSQEVEVAYICSESSSHEDYIRQFLNAGKHVLVEYPMTLSLAAAQELWELAEQKGKVLHEEHVELLMEEFAFLKKEVVGKDLLKGSLLFTSDPAEEDRFGFPAFSGISRLTWLVSLFGELSLVSATLEERKEDQYMKMTVCLETEKKSPLSWIEEKGPGLKRNRYLSFHFKSGSLENVPNVGVNKNIFLKDQNIFVQKLLGQFSEKELAAEKKRILHCLGLAEEIQKYCCSRK",binding result,[6],no binding
